This assay deals with human epidermal growth factor receptor 2 (HER2) extracellular domain (human, UniProt P04626 23-629). Description: SPR. For orientation: SPR reads the build-up and loss of mass on a sensor chip optically.

As usually defined, the Kd is the equilibrium constant for the complex coming apart. A high value points to a looser complex.

Residue numbers refer to the chain shown, from its start.

B1: Trastuzumab HCDR3 variant ARWGGFGYYYFDY (Fab, V domains shown)
VH: EVQLVESGGGLVQPGGSLRLSCAASGFNIKDTYIHWVRQAPGKGLEWVARIYPTNGYTRYADSVKGRFTISADTSKNTAYLQMNSLRAEDTAVYYCARWGGFGYYYFDYWGQGTLVTVSS
VL: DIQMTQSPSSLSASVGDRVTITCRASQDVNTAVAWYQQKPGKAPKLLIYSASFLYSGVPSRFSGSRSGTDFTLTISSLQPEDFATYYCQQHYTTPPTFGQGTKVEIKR
Turning to B1, binding was put at a Kd of 0.031 µM and the “log(KD (M))” value was -7.51 log(M).

B2: Trastuzumab HCDR3 variant ARYGLNHYYVYPY (Fab, V domains shown)
VH: B1 VH with W99Y, G101L, F102N, G103H, Y106V, F107Y, D108P
VL: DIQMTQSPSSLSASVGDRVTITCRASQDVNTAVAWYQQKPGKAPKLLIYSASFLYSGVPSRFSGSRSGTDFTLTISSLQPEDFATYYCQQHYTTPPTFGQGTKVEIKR
As for B2, the Kd is 0.135 µM and the “log(KD (M))” value is -6.87 log(M).

B3: Trastuzumab HCDR3 variant ARYGGLGGYTLAY (Fab, V domains shown)
VH: B1 VH with W99Y, F102L, Y104G, Y106T, F107L, D108A
VL: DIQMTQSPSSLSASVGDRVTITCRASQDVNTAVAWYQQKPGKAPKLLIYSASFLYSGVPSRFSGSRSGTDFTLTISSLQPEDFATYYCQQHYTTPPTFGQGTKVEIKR
Take B3: binding was characterised by a dissociation constant (Kd) of 0.0429 µM and the “log(KD (M))” value is -7.37 log(M).

B4: Trastuzumab HCDR3 variant ARYIFGGPYYFDY (Fab, V domains shown)
VH: B1 VH with W99Y, G100I, G101F, F102G, Y104P
VL: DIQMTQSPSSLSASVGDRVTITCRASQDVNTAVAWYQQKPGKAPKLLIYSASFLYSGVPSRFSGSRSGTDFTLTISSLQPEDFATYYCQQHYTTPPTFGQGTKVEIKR
As for B4, the affinity, expressed as Kd, was 0.036 µM and the “log(KD (M))” value is -7.44 log(M).

B5: Trastuzumab HCDR3 variant ARWYGLGSYGLTY (Fab, V domains shown)
VH: B1 VH with G100Y, F102L, Y104S, Y106G, F107L, D108T
VL: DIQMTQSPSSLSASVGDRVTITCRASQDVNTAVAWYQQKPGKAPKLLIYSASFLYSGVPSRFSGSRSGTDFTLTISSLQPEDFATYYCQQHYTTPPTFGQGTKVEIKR
As to B5, the Kd was determined as 0.223 µM and the “log(KD (M))” value is -6.65 log(M).

B6: Trastuzumab HCDR3 variant ARYGYGAYYYFDY (Fab, V domains shown)
VH: B1 VH with W99Y, G101Y, F102G, G103A
VL: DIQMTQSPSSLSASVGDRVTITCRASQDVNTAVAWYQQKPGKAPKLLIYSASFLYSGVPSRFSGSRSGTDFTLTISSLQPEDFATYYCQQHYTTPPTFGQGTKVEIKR
B6: the Kd was found to be 0.054 µM and the “log(KD (M))” value is -7.27 log(M).

B7: Trastuzumab HCDR3 variant ARYGDSYYYYFDY (Fab, V domains shown)
VH: B1 VH with W99Y, G101D, F102S, G103Y
VL: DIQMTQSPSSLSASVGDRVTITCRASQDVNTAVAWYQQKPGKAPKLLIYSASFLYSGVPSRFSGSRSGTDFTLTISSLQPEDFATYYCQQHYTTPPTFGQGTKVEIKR
Regarding B7, the Kd came to 0.0406 µM and the “log(KD (M))” value was -7.39 log(M).

B8: Trastuzumab HCDR3 variant ARWGTYTYGYFDY (Fab, V domains shown)
VH: B1 VH with G101T, F102Y, G103T, Y105G
VL: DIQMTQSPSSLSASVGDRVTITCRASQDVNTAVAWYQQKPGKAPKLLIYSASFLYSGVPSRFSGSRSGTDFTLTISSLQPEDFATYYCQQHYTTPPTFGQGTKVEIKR
For B8, the Kd came to 0.0881 µM and the “log(KD (M))” value was -7.05 log(M).

B9: Trastuzumab HCDR3 variant ARYDYYGYYYFDY (Fab, V domains shown)
VH: B1 VH with W99Y, G100D, G101Y, F102Y
VL: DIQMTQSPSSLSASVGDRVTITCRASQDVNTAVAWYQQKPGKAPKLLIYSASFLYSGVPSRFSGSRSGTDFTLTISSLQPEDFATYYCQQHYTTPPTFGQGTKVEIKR
For B9, the Kd amounted to 0.099 µM and the “log(KD (M))” value is -7 log(M).

B10: Trastuzumab HCDR3 variant ARYFYDHYYYFDV (Fab, V domains shown)
VH: B1 VH with W99Y, G100F, G101Y, F102D, G103H, Y109V
VL: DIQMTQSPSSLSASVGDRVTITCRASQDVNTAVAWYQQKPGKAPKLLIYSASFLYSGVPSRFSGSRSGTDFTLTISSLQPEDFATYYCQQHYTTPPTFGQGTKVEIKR
Turning to B10, the Kd is 0.0297 µM and the “log(KD (M))” value is -7.53 log(M).

B11: Trastuzumab HCDR3 variant ARYGGGYYYYFDV (Fab, V domains shown)
VH: B1 VH with W99Y, F102G, G103Y, Y109V
VL: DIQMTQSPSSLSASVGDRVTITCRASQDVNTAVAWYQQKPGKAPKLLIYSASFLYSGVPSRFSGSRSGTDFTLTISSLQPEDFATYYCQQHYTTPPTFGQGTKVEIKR
For the molecule B11, binding was put at a Kd of 0.0314 µM and the “log(KD (M))” value is -7.5 log(M).

B12: Trastuzumab HCDR3 variant ARWGSEAFYWFDY (Fab, V domains shown)
VH: B1 VH with G101S, F102E, G103A, Y104F, Y106W
VL: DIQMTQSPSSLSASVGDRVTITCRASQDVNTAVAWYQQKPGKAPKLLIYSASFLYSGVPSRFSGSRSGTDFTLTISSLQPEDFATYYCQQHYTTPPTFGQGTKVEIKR
Regarding B12, binding was put at a Kd of 0.0328 µM and the “log(KD (M))” value was -7.48 log(M).

B13: Trastuzumab HCDR3 variant ARWRYGGAYQFAL (Fab, V domains shown)
VH: B1 VH with G100R, G101Y, F102G, Y104A, Y106Q, D108A, Y109L
VL: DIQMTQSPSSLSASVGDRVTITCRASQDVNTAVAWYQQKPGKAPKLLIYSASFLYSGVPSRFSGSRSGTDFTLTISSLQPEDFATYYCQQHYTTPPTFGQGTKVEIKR
On to B13, for which the Kd came to 0.231 µM and the “log(KD (M))” value was -6.64 log(M).

B14: Trastuzumab HCDR3 variant ARWVSGARYYMDV (Fab, V domains shown)
VH: B1 VH with G100V, G101S, F102G, G103A, Y104R, F107M, Y109V
VL: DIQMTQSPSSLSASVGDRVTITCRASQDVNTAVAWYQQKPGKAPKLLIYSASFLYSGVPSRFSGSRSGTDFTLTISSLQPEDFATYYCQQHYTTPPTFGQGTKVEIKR
For the molecule B14, the Kd came to 0.0338 µM and the “log(KD (M))” value is -7.47 log(M).

B15: Trastuzumab HCDR3 variant ARYGPYYYYAMDY (Fab, V domains shown)
VH: B1 VH with W99Y, G101P, F102Y, G103Y, Y106A, F107M
VL: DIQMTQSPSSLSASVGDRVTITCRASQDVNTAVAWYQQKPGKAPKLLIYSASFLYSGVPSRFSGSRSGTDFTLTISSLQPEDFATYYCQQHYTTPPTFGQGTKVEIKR
Turning to B15, the Kd was 0.0413 µM and the “log(KD (M))” value was -7.38 log(M).

B16: Trastuzumab HCDR3 variant ARYGDADFYAFDP (Fab, V domains shown)
VH: B1 VH with W99Y, G101D, F102A, G103D, Y104F, Y106A, Y109P
VL: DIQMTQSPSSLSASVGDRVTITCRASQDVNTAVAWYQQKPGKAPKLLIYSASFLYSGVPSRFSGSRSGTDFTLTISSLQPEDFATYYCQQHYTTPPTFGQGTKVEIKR
Take B16: the affinity, expressed as Kd, was 0.0358 µM and the “log(KD (M))” value was -7.45 log(M).

B17: Trastuzumab HCDR3 variant ARYGYDYYYYFDV (Fab, V domains shown)
VH: B1 VH with W99Y, G101Y, F102D, G103Y, Y109V
VL: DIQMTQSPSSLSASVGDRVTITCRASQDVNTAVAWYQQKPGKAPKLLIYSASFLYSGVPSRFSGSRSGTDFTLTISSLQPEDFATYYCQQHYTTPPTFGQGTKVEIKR
For the molecule B17, the Kd was 0.05 µM and the “log(KD (M))” value was -7.3 log(M).

B18: Trastuzumab HCDR3 variant ARYGGYGYYWFDY (Fab, V domains shown)
VH: B1 VH with W99Y, F102Y, Y106W
VL: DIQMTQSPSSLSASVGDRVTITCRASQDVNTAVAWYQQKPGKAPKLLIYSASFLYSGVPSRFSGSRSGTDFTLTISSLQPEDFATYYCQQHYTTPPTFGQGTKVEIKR
In the case of B18, the Kd came to 0.04 µM and the “log(KD (M))” value is -7.4 log(M).

B19: Trastuzumab HCDR3 variant ARYGDAFIMSFGV (Fab, V domains shown)
VH: B1 VH with W99Y, G101D, F102A, G103F, Y104I, Y105M, Y106S, D108G, Y109V
VL: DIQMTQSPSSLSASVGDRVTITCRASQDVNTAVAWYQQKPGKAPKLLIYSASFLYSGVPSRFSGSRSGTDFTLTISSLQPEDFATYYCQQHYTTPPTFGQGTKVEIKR
In the case of B19, the Kd was 0.0674 µM and the “log(KD (M))” value was -7.17 log(M).

B20: Trastuzumab HCDR3 variant ARYGARSGYAYEY (Fab, V domains shown)
VH: B1 VH with W99Y, G101A, F102R, G103S, Y104G, Y106A, F107Y, D108E
VL: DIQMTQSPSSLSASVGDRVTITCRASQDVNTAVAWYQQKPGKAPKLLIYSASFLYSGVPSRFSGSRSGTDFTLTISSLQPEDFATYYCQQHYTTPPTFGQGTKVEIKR
Consider B20, for which the Kd is 0.0451 µM and the “log(KD (M))” value was -7.35 log(M).

B21: Trastuzumab HCDR3 variant ARWLRGLGYYWDY (Fab, V domains shown)
VH: B1 VH with G100L, G101R, F102G, G103L, Y104G, F107W
VL: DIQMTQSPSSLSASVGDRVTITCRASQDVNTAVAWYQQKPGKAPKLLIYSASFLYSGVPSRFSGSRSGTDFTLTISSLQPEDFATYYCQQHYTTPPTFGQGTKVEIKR
Take B21: the Kd was determined as 0.0401 µM and the “log(KD (M))” value was -7.4 log(M).

B22: Trastuzumab HCDR3 variant ARWWTPANYPFLY (Fab, V domains shown)
VH: B1 VH with G100W, G101T, F102P, G103A, Y104N, Y106P, D108L
VL: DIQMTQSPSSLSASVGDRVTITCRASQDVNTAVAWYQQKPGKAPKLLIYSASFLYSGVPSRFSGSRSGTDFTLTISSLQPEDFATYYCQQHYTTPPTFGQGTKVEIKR
As to B22, the affinity, expressed as Kd, was 0.133 µM and the “log(KD (M))” value was -6.88 log(M).

B23: Trastuzumab HCDR3 variant ARWPPYYWWAFDY (Fab, V domains shown)
VH: B1 VH with G100P, G101P, F102Y, G103Y, Y104W, Y105W, Y106A
VL: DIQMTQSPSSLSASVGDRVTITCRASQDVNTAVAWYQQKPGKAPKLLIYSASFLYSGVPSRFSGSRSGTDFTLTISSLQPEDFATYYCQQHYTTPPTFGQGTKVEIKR
Regarding B23, binding was put at a Kd of 0.0656 µM and the “log(KD (M))” value is -7.18 log(M).

B24: Trastuzumab HCDR3 variant ARYGGYGNYWFDT (Fab, V domains shown)
VH: B1 VH with W99Y, F102Y, Y104N, Y106W, Y109T
VL: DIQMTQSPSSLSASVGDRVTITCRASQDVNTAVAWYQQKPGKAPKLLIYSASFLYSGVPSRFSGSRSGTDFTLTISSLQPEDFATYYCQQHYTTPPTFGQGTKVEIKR
For B24, binding was characterised by a dissociation constant (Kd) of 0.0421 µM and the “log(KD (M))” value is -7.38 log(M).

B25: Trastuzumab HCDR3 variant ARWGSYGYYYFDY (Fab, V domains shown)
VH: B1 VH with G101S, F102Y
VL: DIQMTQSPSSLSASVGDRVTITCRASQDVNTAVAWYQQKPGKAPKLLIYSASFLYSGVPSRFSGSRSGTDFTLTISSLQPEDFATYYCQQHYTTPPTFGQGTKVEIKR
On to B25, for which the Kd turned out to be 0.0309 µM and the “log(KD (M))” value is -7.51 log(M).

B26: Trastuzumab HCDR3 variant ARWWYGGRNYFDI (Fab, V domains shown)
VH: B1 VH with G100W, G101Y, F102G, Y104R, Y105N, Y109I
VL: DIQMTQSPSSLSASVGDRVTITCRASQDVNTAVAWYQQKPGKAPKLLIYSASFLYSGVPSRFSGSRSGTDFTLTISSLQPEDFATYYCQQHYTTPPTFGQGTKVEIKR
With B26, the Kd worked out at 0.116 µM and the “log(KD (M))” value is -6.94 log(M).

B27: Trastuzumab HCDR3 variant ARYGDGTYYFFAH (Fab, V domains shown)
VH: B1 VH with W99Y, G101D, F102G, G103T, Y106F, D108A, Y109H
VL: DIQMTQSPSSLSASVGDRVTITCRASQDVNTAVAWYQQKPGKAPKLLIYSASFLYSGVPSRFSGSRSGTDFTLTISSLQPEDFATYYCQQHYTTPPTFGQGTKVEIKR
For B27, the affinity, expressed as Kd, was 0.0973 µM and the “log(KD (M))” value was -7.01 log(M).

B28: Trastuzumab HCDR3 variant ARYGLYGSYYFRY (Fab, V domains shown)
VH: B1 VH with W99Y, G101L, F102Y, Y104S, D108R
VL: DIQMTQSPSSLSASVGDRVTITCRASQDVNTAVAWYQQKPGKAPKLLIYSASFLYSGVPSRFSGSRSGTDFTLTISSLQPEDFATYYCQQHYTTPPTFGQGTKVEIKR
B28: the Kd is 0.0718 µM and the “log(KD (M))” value was -7.14 log(M).

B29: Trastuzumab HCDR3 variant ARWQGRSGYYMDY (Fab, V domains shown)
VH: B1 VH with G100Q, F102R, G103S, Y104G, F107M
VL: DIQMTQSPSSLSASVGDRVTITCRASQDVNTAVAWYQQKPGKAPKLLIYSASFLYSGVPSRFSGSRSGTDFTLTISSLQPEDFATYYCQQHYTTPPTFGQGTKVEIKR
Turning to B29, the Kd stood at 0.0483 µM and the “log(KD (M))” value is -7.32 log(M).

B30: Trastuzumab HCDR3 variant ARYGRNGSYSYDY (Fab, V domains shown)
VH: B1 VH with W99Y, G101R, F102N, Y104S, Y106S, F107Y
VL: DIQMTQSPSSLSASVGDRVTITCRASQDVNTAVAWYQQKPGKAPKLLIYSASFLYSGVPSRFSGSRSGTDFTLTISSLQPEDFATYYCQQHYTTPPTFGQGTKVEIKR
Turning to B30, the Kd stood at 0.0382 µM and the “log(KD (M))” value is -7.42 log(M).

B31: Trastuzumab HCDR3 variant ARYGGLSYYSFDL (Fab, V domains shown)
VH: B1 VH with W99Y, F102L, G103S, Y106S, Y109L
VL: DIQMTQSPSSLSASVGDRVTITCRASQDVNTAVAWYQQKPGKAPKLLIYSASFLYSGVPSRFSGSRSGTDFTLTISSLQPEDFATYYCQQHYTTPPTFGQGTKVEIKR
Turning to B31, the Kd turned out to be 0.0581 µM and the “log(KD (M))” value is -7.24 log(M).

B32: Trastuzumab HCDR3 variant ARWGYGYYYSFDY (Fab, V domains shown)
VH: B1 VH with G101Y, F102G, G103Y, Y106S
VL: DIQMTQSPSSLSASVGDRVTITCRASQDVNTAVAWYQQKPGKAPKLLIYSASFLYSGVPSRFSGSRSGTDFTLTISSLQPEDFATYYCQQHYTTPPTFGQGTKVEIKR
As to B32, binding was put at a Kd of 0.038 µM and the “log(KD (M))” value was -7.42 log(M).

B33: Trastuzumab HCDR3 variant ARYGAYSSYYFGY (Fab, V domains shown)
VH: B1 VH with W99Y, G101A, F102Y, G103S, Y104S, D108G
VL: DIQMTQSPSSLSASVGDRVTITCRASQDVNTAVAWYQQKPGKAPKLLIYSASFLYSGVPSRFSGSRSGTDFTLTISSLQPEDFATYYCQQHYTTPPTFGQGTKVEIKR
Regarding B33, the affinity, expressed as Kd, was 0.028 µM and the “log(KD (M))” value is -7.55 log(M).

B34: Trastuzumab HCDR3 variant ARYGTGTYYYFLH (Fab, V domains shown)
VH: B1 VH with W99Y, G101T, F102G, G103T, D108L, Y109H
VL: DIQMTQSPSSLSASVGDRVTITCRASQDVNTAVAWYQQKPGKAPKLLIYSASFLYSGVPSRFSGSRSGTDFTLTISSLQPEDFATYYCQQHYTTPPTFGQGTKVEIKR
For the molecule B34, the Kd was 0.0423 µM and the “log(KD (M))” value was -7.37 log(M).
